Positions count from the first letter of the chain named. Numbers in names are those of the source. Where “and” joins values, the source holds several entries; their conditions need not be identical. Equal values may be shown once. Read-outs that look alike come from different tables or passages of the source.
What was measured:
[1] = system: (15)KDPGA(10) and PGA(10F) substrates; settings: 100 nM enzyme, 15 μM substrates, 8 min, 85° C. (M. jannaschii variants) or 50° C. (M. mazei)
Protocol: In a second set of experiments, the ligase activity of Adriase variants was tested with (15)KDPGA(10)(SEQ ID NO: 419) and PGA(10F)(SEQ ID NO:414) substrates. […] Furthermore, M. mazei Adriase (SEQ ID NO: 380) was tested for ligase activity with the same M. jannaschii peptide substrates to assess whether variety within the recognition motif is tolerated. The read out for Adriase activity was the detection of fluorescently labeled ligation product (10)KDPGA(10F)(SEQ ID NO: 418).
The reaction was performed in optimized M. jannaschii Adriase buffer (20 mM MES-NaOH pH 5.8, 150 mM NaCl, 100 mM KCl, 5 mM TCEP-HCl) for 8 min at 85° C. when M. jannaschii derived Adriase variants were used and at 50° C. in optimized M. mazei Adriase buffer (50 mM acetic acid, 50 mM MES, 50 mM HEPES, 100 mM NaCl, 50 mM KCl, 5 mM TCEP, pH 7.0) when M. mazei Adriase was used and stopped by addition of 2% SDS. Samples were then separated on 12% polyacrylamide gels (Thermo) and fluorescent products visualized by UV light.

[2] = target: M. jannaschii MtrA^Δ194-245 (Methanocaldococcus jannaschii, UniProt Q58261); settings: 1:1 molar mixture, 200 μM, Superdex S200, light scattering
Protocol: Data analysis was carried out with ASTRA v7.3.0.18 software (Wyatt).
For this purpose, size exclusion chromatography using 50 μl 200 μM M. jannaschii Adriase^ΔOB (SEQ ID NO: 132), M. jannaschii MtrA^Δ194-245 (SEQ ID NO:420) or a 1:1 molar mixture of the Adriase-MtrA pair was analyzed using a Superdex S200 10/300 GL gel size-exclusion column (20 mM HEPES-NaOH pH 7.5, 50 mM NaCl, 100 mM KCl) coupled to a miniDAWN Tristar Laser photometer (Wyatt).
To investigate, whether the OB fold alone is sufficient to bind Adriase in the above experimental set-up, we repeated the same analysis using M. jannaschii Adriase^ΔNTN (SEQ ID NO: 519). Specifically, size exclusion chromatography using 50 μl 200 μM M. jannaschii Adriase^ΔNTN (SEQ ID NO: 519), M. jannaschii MtrA^Δ194-245 (SEQ ID NO:420) or a 1:1 molar mixture of the Adriase-MtrA pair was analyzed using a Superdex S200 10/300 GL gel size-exclusion column (20 mM HEPES-NaOH pH 7.5, 50 mM NaCl, 100 mM KCl) coupled to a miniDAWN Tristar Laser photometer (Wyatt).

[3] = system: (15)KDPGA(10) and PGA(10F) substrates; settings: FIG. 14
Protocol: Specifically, 15 μM of (15)KDPGA(10)(SEQ ID NO: 419) and 15 μM of fluorophore-coupled PGA(10F)(SEQ ID NO: 374) substrates were incubated optimized M. jannaschii Adriase buffer (20 mM MES-NaOH pH 5.8, 150 mM NaCl, 100 mM KCl, 5 mM TCEP-HCl) for 8 min at 80° C. with either various Adriase concentrations. The assay was performed with either 7 nM, 21 nM, 62 nM, 185 nM, 556 nM, 1666 nM, 5000 nM or 15000 nM N-terminally modified Adriase (N-His, SEQ ID NO: 450) or 0 nM, 7 nM, 21 nM or 62 nM unmodified Adriase (SEQ ID NO: 385) and stopped by addition of 2% SDS. Samples were then separated on 12% polyacrylamide gels (Thermo) and fluorescent products visualized by UV light.

[4] = system: Ub-GGSLPETGGGHHHHHH and GGG-Ub; experiment: Comparison with Sortase: SrtA / SrtA5* catalyzed protein-protein ligation; settings: 3.13 μM each substrate, enzyme:substrate ratio 1:1, 37° C.
Protocol: (§1) (SEQ ID NO: 536) and GGG-Ub (SEQ ID NO: 666) were recorded. The Adriase assays were conducted with 3.13 μM and 100 μM substrate concentration and 0.0025 molar equivalents Adriase (SEQ ID NO: 380) in reaction buffer (50 mM acetic acid, 50 mM MES, 50 mM HEPES, 100 mM NaCl, 50 mM KCl, 5 mM TCEP, pH 7.0) at 50° C. The SrtA5* and SrtA assays were conducted with 3.13 μM and 100 μM substrate concentration and either 1 or 0.1 molar equivalents SrtA5* or SrtA (SEQ ID NO: 535 and 662) in Sortase buffer (50 mM Tris-HCl pH 7.5, 150 mM NaCl, 10 mM CaCl2) at 37° C. At various time points (0 s, 28 s, 55 s, 88 s, 126 s, 171 s, 225 s, 295 s, 393 s, 554 s, 1125 s, 1670 s and 2250 s), an aliquot of the reaction was mixed with 2% SDS. Samples were then separated on 12% polyacrylamide gels (Thermo) and stained with Coomassie blue. The band intensities of educt and product bands were quantified using ImageJ v1.52a, assuming that all ubiquitin molecules bind the coomassie dye in a similar manner. The results were used to plot the time courses for each experiment.

[5] = system: LPETG (primary) and GGG (secondary) substrates; settings: cited from earlier work
[6] = system: Ub-(5)KDPGA(15) and PGA(15)-Ub; experiment: Comparison with Sortase: Adriase-catalyzed protein-protein ligation
Protocol: as §1

[7] = system: Ub-(5)KDPGA(15)-Strep and PGA(10); experiment: Test for hydrolase activity with protein substrate
Protocol: To investigate, whether this characteristic also holds true with protein substrates, the above experiment was repeated with Ub-(5)KDPGA(15)-Strep substrate (SEQ ID NO: 522). Specifically, 25 μM Ub-(5)KDPGA(15)-Strep and 25 μM PGA(10)(SEQ ID NO: 454) were incubated with either 25 nM or 25 μM M. mazei Adriase (SEQ ID NO: 380) in optimized buffer (50 mM acetic acid, 50 mM MES, 50 mM HEPES, 100 mM NaCl, 50 mM KCl, 5 mM TCEP, pH 7.0) at 50° C. After 140 s, 320 s, 575 s, 1002 s, 30 min or 90 min, aliquots were removed and mixed with 2% SDS to stop the reaction.

[8] = system: Ub-(5)KDPGA(10) and PGA(10)-sdAb/CyP/GST; experiment: Ligation of unrelated protein substrates (sdAb, CyP, GST); type: biochemical, M. mazei; settings: 0.9 μM enzyme, 3.7 μM substrates, 37° C., 10 min
[9] = system: Ub-(5)KDPGA(15) and PGA(15)-Ub substrates; experiment: M. mazei Adriase protein-protein ligation kinetics
Protocol: Specifically, different concentrations (0.39 μM, 0.78 μM, 1.56 μM, 3.13 μM, 6.25 μM, 12.5, 25, 50 or 100 μM; three independent experiments per concentration) of Ub-(5)KDPGA(15)(SEQ ID NO: 520) and PGA(15)-Ub (SEQ ID NO: 521) substrates were incubated with 0.0025 molar equivalents of M. mazei Adriase (SEQ ID NO: 380) in reaction buffer (50 mM acetic acid, 50 mM MES, 50 mM HEPES, 100 mM NaCl, 50 mM KCl, 5 mM TCEP, pH 7.0) at 50° C. At various time points (0 s, 28 s, 55 s, 88 s, 126 s, 171 s, 225 s, 295 s, 393 s, 554 s, 1125 s, 1670 s and 2250 s), an aliquot of the reaction was mixed with 2% SDS. Samples were then separated on 12% polyacrylamide gels (Thermo) and stained with Coomassie blue (FIG. 21A). The band intensities of educt and product bands were quantified using ImageJ v1.52a, assuming that all ubiquitin molecules bind the coomassie dye in a similar manner. The results were used to plot the time courses for each experiment (FIG. 21B).
the data fit for each time course allowed the determination of the maximum rate parameter for each concentration. These maximum rates were then used in a Michaelis-Menten plot (FIG. 21C) to approximate kinetic measures.

[10] = system: (5)KDPGA(10F) and PGA(10) substrates; experiment: M. mazei Adriase peptide-peptide ligation time courses and Michaelis-Menten plot; type: biochemical; settings: 50° C.
From the text: The band intensity of the respective fluorescently labeled PGA(10F) peptides (SEQ ID NO: 455), which were released by the ligation reactions were quantified using ImageJ v1.50i and subtracted from background signal in control reactions without PGA(10) peptides.

[11] = target: LPETG (primary) and GGG (secondary) substrates (Staphylococcus aureus, UniProt Q2FV99); settings: Frankel (2005); cited from earlier work
Chain of LPETG (primary) and GGG (secondary) substrates (Staphylococcus aureus, UniProt Q2FV99) (Q2FV99 60-206): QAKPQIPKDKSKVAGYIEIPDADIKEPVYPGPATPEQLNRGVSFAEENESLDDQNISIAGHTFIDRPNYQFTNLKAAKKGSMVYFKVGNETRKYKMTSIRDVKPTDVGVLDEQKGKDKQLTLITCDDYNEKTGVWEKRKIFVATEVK

Chain of M. jannaschii MtrA^Δ194-245 (Q58261 1-189, stated change not applied): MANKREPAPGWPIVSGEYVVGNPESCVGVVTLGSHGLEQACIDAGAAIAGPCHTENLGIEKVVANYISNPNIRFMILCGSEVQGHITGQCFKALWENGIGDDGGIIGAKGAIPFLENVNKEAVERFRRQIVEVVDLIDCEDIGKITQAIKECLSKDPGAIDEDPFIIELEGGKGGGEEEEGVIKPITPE

B1: 428-57: M. jannaschii Adriase without the insertion element that distinguishes Adriase from proteasome subunits, C-terminal His6 (protein)
chain: SLIICYYGKNGAVIGGDRRQIFFRGSGKIIIEDDREKVRKISDSVVCGEVRSLGIDAKRRRVYATKGKCAIVDILNDTVTNQTIKEGFGIVVLGNRFLKKKAEEELKRTAKLFPMMPIQQIEDAIKEIFEKLKWHPTVSKEYDIYSVNKYEKNFEEVIKKDIESLFKYREQLRKQLIDFGKVMSIVNKIVKNGEIGVIKDGKLHLYDDYIAIDKIDPNPKVFKVVDVEGNFKDGDIVVIENGDMKIKGTNEKVTTKYIIIHKGSHHHHHH
modifications: C-terminal His6; M. jannaschii Adriase 28-57, C-terminal His6
- ligase activity (fluorescent ligation product) [1]: abolishes ligase activity

B2: M. jannaschii Adriase^ΔNTN (protein, listed as Methanosarcina mazei)
chain: MEQLRKQLIDFGKVMSIVNKIVKNGEIGVIKDGKLHLYDDYIAIDKIDPNPKVFKVVDVEGNFKDGDIVVIENGDMKIKGTNEKVTTKYIIIHKGSHHHHHH
modifications: Methanosarcina mazei Go1; Adriase NTN with C-terminal His-tag
- complex formation with MtrA [2]: no complex is formed

B3: M. jannaschii Adriase: Methanocaldococcus jannaschii Adriase (MJ_0548) with C-terminal His6-tag (protein)
chain: SLIICYYGKNGAVIGGDRRQIFFRGSEENRKILEEKLYSGEIKSEEELYKLAEKLNIKIIIEDDREKVRKISDSVVCGEVRSLGIDAKRRRVYATKGKCAIVDILNDTVTNQTIKEGFGIVVLGNRFLKKKAEEELKRTAKLFPMMPIQQIEDAIKEIFEKLKWHPTVSKEYDIYSVNKYEKNFEEVIKKDIESLFKYREQLRKQLIDFGKVMSIVNKIVKNGEIGVIKDGKLHLYDDYIAIDKIDPNPKVFKVVDVEGNFKDGDIVVIENGDMKIKGTNEKVTTKYIIIHKGSHHHHHH
modifications: C-terminal His6-tag; M. jannaschii Adriase with C-terminal His-tag
- rate of product generation compared to N-terminally modified Adriase [3]: ~ 200 ×

B4: M. jannaschii Adriase^S1A (protein)
chain: B3 chain with S1A
modifications: C-terminal His-tag; M. jannaschii Adriase S1A mutant with C-terminal His-tag
- complex formation with MtrA [2]: form a heterodimer
- ligase activity (fluorescent ligation product) [1]: no ligation product is observed

B5: Adriase^ΔOB S1A (protein)
chain: ALIICYYGKNGAVIGGDRRQIFFRGSEENRKILEEKLYSGEIKSEEELYKLAEKLNIKIIIEDDREKVRKISDSVVCGEVRSLGIDAKRRRVYATKGKCAIVDILNDTVTNQTIKEGFGIVVLGNRFLKKKAEEELKRTAKLFPMMPIQQIEDAIKEIFEKLKWHPTVSKEYDIYSVNKYEKNFEEVIKKDIESLFKYREQGSHHHHHH
- complex formation with MtrA [2]: decreased affinity

B6: Adriase^ΔOB: M. jannaschii Adriase without OB-like domain (Δ203-293), C-terminal His6-tag (protein)
chain: B5 chain with A1S
modifications: C-terminal His6-tag; M. jannaschii Adriase without OB, with C-terminal His-tag
- ligase activity (fluorescent ligation product) [1]: still catalytically active

B7: SrtA5* (protein, listed as Staphylococcus aureus)
chain: MQAKPQIPKDKSKVAGYIEIPDADIKEPVYPGPATREQLNRGVSFAEENESLDDQNISIAGHTFIDRPNYQFTNLKAAKKGSMVYFKVGNETRKYKMTSIRNVKPTAVEVLDEQKGKDKQLTLITCDDYNEETGVWETRKIFVATEVKLEHHHHHH
modifications: C-terminal His-tag; SrtA5* delta 1-59 with C-terminal His-tag
- ligase activity at low substrate concentrations [4]: only spurious ligase activity
- increased rates compared to the wild type enzyme ([5]; Chen (2011)): up to 120 ×
- Km ([5]; Chen (2011), read-out: KM GGG): 4700 µM
- Km ([5]; Chen (2011), read-out: KM LPETG): 170 µM

B8: M. mazei Adriase: Methanosarcina mazei Adriase (MM_2909), archaeal peptide recombinase, C-terminal His6-tag; Strep-, Myc-, HA-tagged versions used as pulldown bait (protein)
chain: TLVIAFIGKNGAVMAGDMREITFEGEKPDREKLEKELYSGSIVTDEEMQKKAEEFGVKITVADCKEKVSERNGVLVGEVSSAEGGVVKKRRLYASAGNFAIAELINTEMTLTSQGKGSNFIAFGNEFTKQVANKCFKDNWTKKSNLQDAVKILILCMETVARKTASVSKQFMIVQTASNADVLKVVEKDRNCGSHHHHHH
modifications: C-terminal His6-tag; M. mazei Adriase with C-terminal His-tag
notes: Methanosarcina mazei Adriase (MM_2909), archaeal peptide recombinase, C-terminal His6-tag; Strep-, Myc-, HA-tagged versions used as pulldown bait
- substrates ligated (on a molar basis) ([6]; 3.13 μM each substrate, enzyme:substrate ratio 1:400): ~ 50%
- yield compared to Sortase ([6]; 100 μM substrates): ~ 1.7 ×
- ligase activity / ligation rate compared to SrtA5* ([6]; 100 μM substrates, Adriase 0.0025 molar equivalents, 50° C., SrtA5* 37° C.): ~ 40 × and > 40 ×
- ligase activity / ligation rate compared to SrtA ([6]; 100 μM substrates, Adriase 0.0025 molar equivalents, 50° C., SrtA 37° C.): ~ 4000 × and > 4000 ×
- ligation yield ([6]; compared to ~30% in the Sortase reactions): ~ 50%
- product formation ([7]; enzyme:substrate 1:1000 (1×), 30 minutes): ~ 50%
- amount of ligation product ([7]; prolonged incubation (90 min), 1000× increased Adriase concentration): ~ 50%
- ligation of protein pairs [8]: efficiently ligates all three protein pairs
- ligation rate coefficient ([9]; 25 μM substrate concentration): 0.74 ± 0.05 s⁻¹
- ligation rate coefficient ([9]; 50 μM substrate concentration): 0.88 ± 0.07 s⁻¹
- ligation rate coefficient ([9]; 100 μM substrate concentration): 0.90 ± 0.14 s⁻¹
- substrate concentration at half-maximum rate ([9]; each substrate, equimolar, protein-protein ligation, 50° C., pH 7.0): 2.2 µM
- maximum rate ([9]; protein-protein ligation, 0.0025 molar equivalents enzyme, 50° C., pH 7.0): 0.92 ligations per enzyme and second
- ligase activity (fluorescent ligation product) [1]: showed activity
- maximum rate ([10]; 0.001 molar equivalents enzyme, pH 7.0, Michaelis-Menten model): ~ 2.25 ligations per enzyme and second
- substrate concentration at half maximal reaction speed ([10]; each substrate, pH 7.0): ~ 9 μM

B9: SrtA: Staphylococcus aureus Sortase A without N-terminal membrane anchor (residues 1-59), N-terminal His6-tag (protein, listed as Staphylococcus aureus)
chain: MRGSHHHHHHGSQAKPQIPKDKSKVAGYIEIPDADIKEPVYPGPATPEQLNRGVSFAEENESLDDQNISIAGHTFIDRPNYQFTNLKAAKKGSMVYFKVGNETRKYKMTSIRDVKPTDVEVLDEQKGKDKQLTLITCDDYNEKTGVWEKRKIFVATEVK
modifications: N-terminal His6-tag; His6-SrtA 1-59
notes: Staphylococcus aureus Sortase A without N-terminal membrane anchor (residues 1-59), N-terminal His6-tag
- ligase activity at low substrate concentrations [4]: only spurious ligase activity
- Kcat Ligation/Kcat Hydrolysis [11]: ≈ 3.3
- Km ([5]; primary substrate used in excess, read-out: KM for the secondary substrate): 196 µM
- Km ([5]; secondary substrate used in excess, read-out: KM for the primary substrate): 7330 µM
